Experimental data as given in the DeepSol protein solubility set.

Test: soluble on expression in E. coli; label from the status in PepcDB or PDB records

Sequence | soluble on expression in E. coli
HGGEAHMVPMDKTLKEFGADVQWDDYAQLFTLIKDGAYVKVKPGAQTAIVNGQPLALQVPVVMKDNKAWVSDTFINDVFQSGLDQTFQVEKRPHPLNALTADEIKQAVEIVKASADFKPNTRFTEISLLPPDKEAVWAFALENKPVDQPRKADVIMLDGKHIIEAVVDLQNNKLLSWQPIKDAHGMVLLDDFASVQNIINNSEEFAAAVKKRGITDAKKVITTPLTVGYFDGKDGLKQDARLLKVISYLDVGDGNYWAHPIENLVAVVDLEQKKIVKIEEGPVVPVPMTARPFDGRDRVAPAVKPMQIIEPEGKNYTITGDMIHWRNWDFHLSMNSRVGPMISTVTYNDNGTKRKVMYEGSLGGMIVPYGDPDIGWYFKAYLDSGDYGMGTLTSPIARGKDAPSNAVLLNETIADYTGVPMEIPRAIAVFERYAGPEYKHQEMGQPNVSTERRELVVRWISTVGNYDYIFDWIFHENGTIGIDAGATGIEAVKGVKAKTMHDETAKDDTRYGTLIDHNIVGTTHQHIYNFRLDLDVDGENNSLVAMDPVVKPNTAGGPRTSTMQVNQYNIGNEQDAAQKFDPGTIRLLSNPNKENRMGNPVSYQIIPYAGGTHPVAKGAQFAPDEWIYHRLSFMDKQLWVTRYHPGERFPEGKYPNRSTHDTGLGQYSKDNESLDNTDAVVWMTTGTTHVARAEEWPIMPTEWVHTLLKPWNFFDETPTLGALKKDK | soluble
MDSLEKIKEEVISCKKCKLWQFRTNAVPGEGYPKAEIMFVGEAPGENEDKEGRPFVGAAGKLLTQMIKEILGLERDQVFITNVVKCRPPNNRDPEEDEITACSPYLDRQIDIIMPKIIVTLGRHSTKYIFSKMGENFSSITKVRGKSYVWKYKEKEIIVFPTYHPAAALYNPNLRKILEEDFKKIRELAITPKRYTIDYFLGGKNRSWDKREKSDSNSGK | soluble
SPTVEELYRNYGILADATEQVGQHKDAYQVILDGVKGGTKEKRLAAQFIPKFFKHFPELADSAINAQLDLCEDEDVSIRRQAIKELPQFATGENLPRVADILTQLLQTDDSAEFNLVNNALLSIFKMDAKGTLGGLFSQILQGEDIVRERAIKFLSTKLKTLPDEVLTKEVEELILTESKKVLEDVTGEEFVLFMKILSGLKSLQTVSGRQQLVELVAEQADLEQTFNPSDPDCVDRLLQCTRQAVPLFSKNVHSTRFVTYFCEQVLPNLGTLTTPVEGLDIQLEVLKLLAEMSSFCGDMEKLETNLRKLFDKLLEYMPLPPEEAENGENAGNEEPKLQFSYVECLLYSFHQLGRKLPDFLTAKLNAEKLKDFKIRLQYFARGLQVYIRQLRLALQGKTGEALKTEENKIKVVALKITNNINVLIKDLFHIPPSYKSTVTLSWKPVQKVEIGQKRASEDTTSGSPPKKSSAGPKRDARQIYNPPSGKYSSNLGNFNYERSLQGK | soluble
MSQHAFSPDENVHLSPKGWYRQASEKPGFIHDAAQAAAIEQLDRLWHELVDFKSKRNRFLGRSLRSPQVPRGLYFWGGVGRGKSFLMDAFYACVPYRRKRRIHFHHFMAETHRELRKFAGGKDPLLAYADQIAKATRLLCFDEFHVSDIADAMILGRLLSALLERGVVVVTTSNYAPDDLYPGGLQRQNFLPTIELIKRELDVLNVDGGHDYRLRELTREPLFMVPADAANEGKMEQLFRRVSTGAELAQKSITVLEREIAVKRMSPGVIWFDFMALCDGPRAQTDYLEIASEYHTVFLSGIPRLSAKQASIARRFTWLVDVFYDNRVKLIASADAPPEAIYTEGLQSGEFFRTASRLTEMQSKSYLELPHQSMTQSHDQPPPGVALLEHHHHHH | not soluble
MRGSHHHHHHGSDLGRKLLEAARAGQDDEVRILMANGADVNAADNTGTTPLHLAAYSGHLEIVEVLLKHGADVDASDVFGYTPLHLAAYWGHLEIVEVLLKNGADVNAMDSDGMTPLHLAAKWGYLEIVEVLLKHGADVNAQDKFGKTAFDISIDNGNEDLAEILQKLN | soluble
MAENAAPGLISELKLAVPWGHIAAKAWGSLQGPPVLCLHGWLDNASSFDRLIPLLPQDFYYVAMDFGGHGLSSHYSPGVPYYLQTFVSEIRRVVAALKWNRFSILGHSFGGVVGGMFFCTFPEMVDKLILLDTPLFLLESDEMENLLTYKRRAIEHVLQVEASQEPSHVFSLKQLLQRQRTALTSSAGSCVRIPSGSCRPMSC | soluble
MSLAYGIRLLVWGERACFTRPEMKVERVSYDVITPSAARGILEAIHWKPAICWVVDRIHVLKPIRFESIRRNEVGGKLSAASVGKAMKAGRTDGLIALADEDRQQRAATVLRDVSYVIEAHFELTARADASDSEGKHLDIFNRRARKGQYFHAPCLGVREFPASFELIEPDDVLPAVPADLRGERELGWMLHDIDFANDMTPHFFRAVMRDGVIEVPALRSEGVKAEGHHHHHH | soluble
GMDVFSEYLAGIADPFHRERTEEVLTWIKNKYPNLHTEIKWNQPMFTDHGTFIIGFSVSKKHLAVAPEKVTIAHVEDDIVKAGYDYTEQLIRIPWNGPVDYTLLEKMIEFNILDKADCSTFWRK | soluble
MRVVALGDLHANFPLLWRILRREGLADEGFRPTEALRSGRVRLVLLGDLVHPKTPRDYARLTGLEAYDPEDPFHLRLAAGAQIRELFRLKAFQEEAGDHVTILLGNHEAALLEGSPILGNRHLKHLEFHPEHGGKALPEALRSWMASFPKELVLKGVHFAHVGPVPWLQEYDGLFYAQSEAKTWWFLTPEYVERMGYRYGVYGHTPMPDGILLKDRFALIDALDLGEYLVLDPEADPPRPEVRRLHE | soluble
MSLNLPFRAMVSDLDGTLLTPEHLVGDLTIDTLRALEQKGVDIILATGRNHTDVSSILGKIGAERAVMITSNGARVRDLQGNLLYSNSLPEELVLELYKTPFDTSKVCMNSYQDEGWFTNKDIPAMRQFHKESGFDYNVVDFSKHHGRGTEKVFFIGKTPEDLVEVETYLRDKFGDVTTIVYSALACLEVMNKNVSKGDALKHLLESREYELKDCIAFGDGMNDVEMLSWAGKGCIMKDADIRLKMACPELEVIGSNKEESVARYLRTQFGLDYEGHHHHHH | soluble
MKNREIYAEMRCIPPVVLRADGRNFKNTLSGLGFEKPYDTTFARAMADTAELFIKKSGLSPYFAYTFSDEISFLFTDLPFDGRVEKIDSVVASFLGSALTIKLRLEAPIAFDSRLVALQKEEVSEYFHWRQLEAWRNFVASWGYYSLRNEGMGKDEAGKFLKGKKEWEIHEMLFERGINLAALPAWQRRGIIISKEECEISGFNPVYGKEVKSMRRRITQNWEIPKFKSEEGITFLEKLINRNMAGDPLEHHHHHH | not soluble
MAHHHHHHMHRASRIAAAPFKSVLRRHKHHPEGLPLYNEMSKQWLCREGERWWILDAKGEQLPRVAAVAAQYITGQHRPDFTPGMISGDHVIIVNIKDVVMVGDEWIRVPITWQTAYPGGKYRIRLTDMYERDPCMLMWWFLKDEVNRHFVRKLKTRVAPLEKAWLYEDSVHPHGEKNPRPLCWSDPVVRGWKYTDPQFIRRWKPNEFIT | not soluble
MTVKIALLGFGTVASGVPFLLKENGGKINQSAHSDIKVAKVLVKDEDEKNRLLAAGNDFNFVTNVDDILSDQDITIVVELMGRIEPAKTFITRALEAGKHVVTANKDLLAVHGAELLEIAQANKVALYYEAAVAGGIPILRTLANSLASDKITRVLGVVNGTSNFMVTKMVEEGWSYDDALAEAQRLGFAESDPTNDVDGIDAAYKMVILSQFAFGMKIAFDDVAHKGIRNITPEDVAVAQELGYVVKLVGSIEETSSGIAAEVTPTFLPKAHPLASVNGVMNAVFVESIGIGESMYYGPGAGQKPTATSVVADIVRIVRRLNDGTIGKDFNEYSRDLVLANPEDVKANYYFSILALDSKGQVLKLAEIFNAQDISFKQILQDGKEGDKARVVIITHKINKAQLENVSAELKKVSEFDLLNTFKVLGE | soluble
ADERLQFTATTLSGAPFDGASLQGKPAVLWFWTPWCPFCNAEAPSLSQVAAANPAVTFVGIATRADVGAMQSFVSKYNLNFTNLNDADGVIWARYNVPWQPAFVFYRADGTSTFVNNPTAAMSQDELSGRVAALTS | soluble
NMIKAAISRQREFLADASAVQFTRNDQGIAGALKKIGSNVQGSTLNTKASDEMSHMMFGQSKLSGFSGLFATHPPLDERIRRIEPNWDGSYAQHSHAQNTAFDNEQVSGFAVGGGSPASQSASPSEQLSETGQQLISQLPPELVDIAREPYSARFIAFALIFDGSDIQREMIKSYVPLASQSTLLPWLDYDLPLHLRFPLLELALPALKSLSEAQKISLCKVLRELSETDNQYSLAEWCVINLLEKQLLASFGFIKQHKSLKQLEESVFWLLRELAWVSHSQADKAQRAYHCALAHLGFPEVKLEPANSNWHLSRAALELLLQLKPNDRRMFVKACRLAIESDGEITVAEGEIYRVIACFLEVPEPPLTISG | not soluble
MKGEIEGITDDGIGVRVIDKNGFEHKIEMLFDGEIVYHHQKGYPDNPKERTNEEDESVAQARRFARYHVYREKGYDTVPNPDNPDRIAAVLLALIGLDDQQFDQYFGMLYEQMASHERADVAPVLDLPQEVYSEEFIVYKQNVYLEESLDAMQDQLTQPATEVFGEENLQEFLQETGDGLVAKARSLVGGGTDEDEDASEEPSIPEADLSIADVSGLDTMYSTPEGYKTIEGEDPVSREPDARIETLPMGYTREQFRYHVGHNLICQIRDCFISMGVEPPAQYRLLGHGKFKYSAKYRDFDFYPDYWDYEANIPGYSSPV | not soluble
MTQELGPLARTLSMPYYDDALPAHDQFHAKRVRDIALRLAGDCNGSVDRDVLAASAWLHDIGRPRERAGEIDDHDDWATAEAAQLLAAEGVKPDRIGRIKHCIQAHSIRTSSPEPRTLEAKLLFDADKLDAAGARGLVRLACIVGERSGRTGEKYAVIDDTSATDLGTSNSPDIELLRDWAQERLDTLYTQPGRRLGQTRREFMDEFFTHFAGEIGASGEWLEHHHHHH | not soluble
MDVLVTAGGTSEPIDNVRSITNHSSGGLGKAIAESFLAAGHTVTYVTTKHALRPTQQLDLSIKEIETTVELATTLEQLFAEKQFDAIVHAMAVSDFTTETAQTEEQFIDSFAQQLSEQTLPKTKEALVTIVQNTLNQIADIPQTATKISSDTDRLLIFLKKNPKVIQMIRDKQPQTVLVGFKLLVNVSQEELVQVAQAALVKNRCDFVLANDLMNVHETEHKGLLINETGIVQEAYSKQGIGSMIVKNVEKKWREQQ | not soluble
MSLKIKLIAVDLDGTLLTSRKKVSPKTLATLKKAREKGILVVPLSGRPLPGVLKVFEPFKLDPADNFAICYNGGLVQRMDGEVLSVSPLTDENVEHMLALKQTGIFGPYFMDTKDFYVAPKGSSFGVGFLAKARNMGVKRMVPGQHYEFIKGEFVSLPSKIKKFRAGFSPATEQEFEISASGGQCLEFNTPGTSKGQALTTLLDLLNIQPEEAMVFGDNNNDLSDFQLPGVFKVAMGNAIDEIKAAADYVTASNNQDGIALAVEKFVDMEGHHHHHH | soluble
MKQLSVSLAILCAVATSEAFAADELQQRAQGLFKPVPAKAPTLKGNPASPVKVELGKMLYFDPRLSASHLISCNTCHNVGLGGGDLQATSTGHGWQKGPRNAPTVLNSVFNTAQFWDGRAKDLAEQAKGPVQASVEMNNTPDQVVKTLNSIPDYVALFKKAFPGEKDPVTFDNMAKAIEVFEATLITPDSPFDQYLKGKKKALDGKQTAGLKLFLDKGCVACHGGLNLGGTGYFPFGVVEKPAENILPLGDKGRFAVTNTAKDEYVFRAPSLRNVAITYPYFHSGVVWSLKEAVAVMGSAQFGIKLSDDESEAIAAFLGSLTGKQPKVVYPIMPASTDATPRPRL | soluble
MDNLMLNNKIYLEGTVVSELEFSHEMYGEGFYTFNLEVMRLSDSKDLLNITVSERLITTMDLKIGTEIVVEGQLRSYNKFIDGNNKLILTVFARNIEYCEERSKNPNEIFLDGFICKEPVYRTTPFGREIADLLLAVNRSYNKSDYIPTIAWGRNSRFCKTLEVGDNIRIWGRLQSREYQKKISETEVVKKIAYEVSISKMEKVSVESEQNESGEEISLEHHHHHH | not soluble
